Experimental data: patent publication US20040049024A1, “Compositions and methods related to the minn1 tumor suppressor gene and protein” (priority 2003, published 2004)
Peptide text beside a SMILES is read from it. * marks the point of attachment. Cbz = O=C(OCc1ccccc1)*; CH2F = FC*

Legend:
293-T cells = assay: Cell death after Minn1 or Fas transfection, with or without caspase inhibitor; assay type: cell-based, human; conditions: 30 μM, added immediately after transfection; DMSO carrier
Protocol: Fas is a well-characterized inducer of apoptosis (Nagata, Annu. Rev. Genet., 33:29-55 [1999]).
Apoptosis requires the activation of caspase proteases (Stennicke and Salvesen, Biochim. Biophys. Acta 1477:299-306 [2000]). In order to confirm that the cell death observed in the Minn1 and […] transfected cells was apoptotic cell death, the transfection experiments were repeated in the presence of the caspase inhibitor, z-VAD-fink (Calbiochem). The drug was added to the cells to a final concentration of 30 μM immediately after transfection and was maintained during subsequent medium changes. DMSO was used as the drug carrier, and was also included in transfections that contained no drug in order to normalize transfection conditions.

H-Ras [1] = biological target: T1, H-Ras (Homo sapiens, UniProt P01112); assay: In vitro Ras/Minn1 binding and co-precipitation assay
T1 construct: made in house; XL1-Blue Escherichia coli for the MBP fusions
From the text: The ability of Ras and Minn1 to interact in vitro was examined. These experiments used in vitro produced and purified maltose binding protein (MBP) fusion proteins containing the Minn1 Ras-Association (RA) domain or the Raf Ras-Binding-Domain (RBD), and purified Ras protein in a standard protein binding and co-precipitation assay.
Ras protein was produced by inducing an H-Ras bacterial expression construct in bacteria followed by differential denaturation and dialysis, as known in the art (See e.g., Campbell-Burk and Carpenter, Methods Enzymol., 255:3-13 [1995]). […] Purity and concentrations of the recombinant proteins were assessed by denaturing polyacrylamide gel electrophoresis (SDS-PAGE) followed by Coomassie Blue staining and comparison to known standards.
After this time, the binding reactions were centrifuged and washed. Following the washing steps, the binding reactions were loaded and resolved using PAGE, blotted to a polyvinylidene difluoride (PVDF) membrane, and analyzed by Western immunoblotting using an anti-H-Ras monoclonal primary antibody (Quality Biotech, #146). Detection was accomplished using an alkaline phosphatase conjugated secondary antibody and ECL chemiluminescence reagent (Amersham). […]
The proteins resolved in the PAGE were analyzed by Western immunoblotting using an anti-H-Ras monoclonal antibody (Viro Med). […]

[2] = biological target: T2, HA-H-Ras(WT) fusion protein (UniProt P01112 1-186); assay: co-transfection in 293-T cells, anti-HA immunoprecipitation, anti-FLAG Western blot
T2 construct: Expressed in 293-T cells; precipitated with anti-HA beads; also called wild-type HA-H-Ras
Protocol: (§1) After 48 hours, the cells were lysed, immunoprecipitated using anti-HA antibody-conjugated sepharose beads (BAbCO), washed and analyzed by Western immunoblotting using an anti-FLAG monoclonal antibody (M2 antibody, SIGMA) and an alkaline phosphatase conjugated secondary antibody with an ECL detection kit (Amersham).
(§2) After 48 hours, the cells were lysed in EDTA-free RIPA buffer (described in Clark et al., J. Biol. Chem., 272:20990-20993 [1997]), immunoprecipitated with anti-HA antibody-conjugated sepharose beads (BAbCO), washed and subjected to Western immunoblotting using an anti-FLAG monoclonal primary antibody (M2 antibody, Sigma) and an alkaline phosphatase conjugated secondary antibody with an ECL chemiluminescence kit (Amersham).

[3] = biological target: T3, HA-H-Ras(G12V) fusion protein (UniProt P01112 1-186); assay: as above
T3 construct: Expressed in 293-T cells; precipitated with anti-HA beads; also called pCGNHA-H-Ras(G12V)
Protocol: as §1, §2

H-Ras [4] = assay: In vivo Ras/Minn1 binding assay (co-transfection/co-precipitation in 293-T cells); assay type: cell-based, human; conditions: HA-H-Ras(WT) versus HA-H-Ras(G12V), 48 hours after co-transfection
From the text: To confirm and complement the results observed in the in vitro binding assay, an in vivo binding assay was undertaken using recombinant FLAG-tagged Minn1 protein and hemagglutinin (HA)-tagged Ras proteins. These experiments used a standard co-transfection/co-precipitation protocol common in the art, using 293-T cells, a transformed human embryonal kidney cell line.
Expression vectors encoding two different forms of HA-tagged Ras protein were used in this assay, namely, a wild-type HA-H-Ras fusion protein and an HA-H-Ras containing a gain-of-function (G12V) mutation. This mutation is known to be oncogenic, and results in elevated Ras signalling activity (Clark and Der, in GTPases in Biology [eds. Dickey and Birmbauer], Springer-Verlag London Ltd., pp. 259-287 [1993]). […] Thus, this mutant form of Ras is considered to be locked in an active conformation.
as §1, with “The in vivo binding assay was conducted by co-transfecting mammalian expression vectors encoding HA-H-Ras(WT) or HA-H-Ras(G12V) with an expression vector encoding FLAG-Minn1 into 293-T cells. After” for “After”, “(Amersham). […]” for “(Amersham).”

Molecule: COC(=O)C[C@H](NC(=O)[C@H](C)NC(=O)[C@@H](NC(=O)OCc1ccccc1)C(C)C)C(=O)CF [z-VAD-fmk] (Cbz-Val-Ala-Asp(OMe)-CH2F)
- Effect on Fas-induced cell death (293-T cells): severely reduced
- Effect on Minn1-induced cell death (293-T cells): severely reduced

B1: MBP-Minn1: maltose binding protein fusion protein containing the Minn1 Ras-Association (RA) domain, amino acid positions 59-270 (protein)
chain: DLFQAEIEQKIKEYNAQINSNLFMSLNKDGSYTGFIKVQLKLVRPVSVPSSKKPPSLQDARRGPGRGTSVRRRTSFYLPKDAVKHLHVLSRTRAREVIEALLRKFLVVDDPRKFALFERAERHGQVYLRKLLDDEQPLRLRLLAGPSDKALSFVLKENDSGEVNWDAFSMPELHNFLRILQREEEEHLRQILQKYSYCRQKIQEALHACPLG
modifications: left off: large carriers
- GTP dependence of the interaction with Ras (H-Ras [1]; GTP-loaded versus GDP-loaded H-Ras): GTP-dependent
- Co-precipitation of Ras protein (physical interaction with Ras) (H-Ras [1]; purified H-Ras preloaded with GTP or GDP, 4° C. for 2 hours, Western immunoblot with anti-H-Ras antibody): co-precipitated

B2: FLAG-tagged Minn1 protein (other, not shown: small tags and cut ends)
chain: MGEAEAPSFEMTWSSTTSSGYCSQEDSDSELEQYFTARTSLARRPRRDQDEPVEWETPDLFQAEIEQKIKEYNAQINSNLFMSLNKDGSYTGFIKVQLKLVRPVSVPSSKKPPSLQDARRGPGRGTSVRRRTSFYLPKDAVKHLHVLSRTRAREVIEALLRKFLVVDDPRKFALFERAERHGQVYLRKLLDDEQPLRLRLLAGPSDKALSFVLKENDSGEVNWDAFSMPELHNFLRILQREEEEHLRQILQKYSYCRQKIQEALHACPLG
notes: also called FLAG-Minn1
- binding result [2]: binds
- binding result [3]: binds

B3: FLAG-tagged Minn1: Minn1 protein with amino terminal FLAG epitope tag, expressed from pCDNAFLAG-Minn1 in 293-T cells (protein)
chain: MGEAEAPSFEMTWSSTTSSGYCSQEDSDSELEQYFTARTSLARRPRRDQDEPVEWETPDLFQAEIEQKIKEYNAQINSNLFMSLNKDGSYTGFIKVQLKLVRPVSVPSSKKPPSLQDARRGPGRGTSVRRRTSFYLPKDAVKHLHVLSRTRAREVIEALLRKFLVVDDPRKFALFERAERHGQVYLRKLLDDEQPLRLRLLAGPSDKALSFVLKENDSGEVNWDAFSMPELHNFLRILQREEEEHLRQILQKYSYCRQKIQEALHACPLG
modifications: left off: small tags and cut ends
- Association with HA-tagged Ras proteins (anti-HA immunoprecipitation, anti-FLAG Western) (H-Ras [4]): preferentially associated with the activated HA-Ras(G12V) protein
